Source: patent publication US20220153832A1 (PIONYR IMMUNOTHERAPEUTICS, published 2022)

T1: N-terminally polyhistidine tagged human MARCO ECD (147-520), recombinant (human, UniProt Q9UEW3 147-520)
T1 construct: also called PI-RG-3000; recombinant human MARCO; not shown: N-terminal polyhistidine tag
T1 sequence: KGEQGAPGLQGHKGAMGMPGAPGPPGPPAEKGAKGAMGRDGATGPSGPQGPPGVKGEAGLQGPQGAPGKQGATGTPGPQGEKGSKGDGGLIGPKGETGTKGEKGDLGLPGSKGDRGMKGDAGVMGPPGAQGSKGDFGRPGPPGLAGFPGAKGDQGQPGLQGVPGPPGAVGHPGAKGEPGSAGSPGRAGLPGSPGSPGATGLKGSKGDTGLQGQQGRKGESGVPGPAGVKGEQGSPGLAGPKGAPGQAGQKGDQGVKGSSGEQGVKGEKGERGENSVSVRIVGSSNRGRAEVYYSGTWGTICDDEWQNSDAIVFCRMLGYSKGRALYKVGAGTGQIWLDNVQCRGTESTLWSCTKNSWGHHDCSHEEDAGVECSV

T2: Human Macrophage Receptor with Collagenous Structure (MARCO), full length, on cells (human, UniProt Q9UEW3 1-520)
T2 construct: the cell type is named under assay; also called huMARCO; HuMARCO
T2 sequence: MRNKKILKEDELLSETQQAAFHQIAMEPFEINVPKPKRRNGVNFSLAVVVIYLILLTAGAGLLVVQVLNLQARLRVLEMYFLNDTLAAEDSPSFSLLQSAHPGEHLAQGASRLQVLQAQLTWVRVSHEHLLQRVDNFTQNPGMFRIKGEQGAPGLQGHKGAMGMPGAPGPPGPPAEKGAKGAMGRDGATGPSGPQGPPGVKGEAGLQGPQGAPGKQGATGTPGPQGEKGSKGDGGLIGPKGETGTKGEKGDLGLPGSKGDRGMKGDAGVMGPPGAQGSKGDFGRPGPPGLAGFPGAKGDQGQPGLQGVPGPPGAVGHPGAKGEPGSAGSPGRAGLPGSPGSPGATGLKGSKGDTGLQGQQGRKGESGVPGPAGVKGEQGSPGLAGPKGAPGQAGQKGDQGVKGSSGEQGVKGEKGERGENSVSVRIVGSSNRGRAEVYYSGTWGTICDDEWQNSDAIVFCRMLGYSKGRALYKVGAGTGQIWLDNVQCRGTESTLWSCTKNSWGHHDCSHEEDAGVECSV

T3: Cynomolgus MARCO, full length, on cells (cynomolgus, UniProt A0A2K5X0Z2 1-519)
T3 construct: whole, on cells; also called cyno MARCO; CyMARCO
T3 sequence: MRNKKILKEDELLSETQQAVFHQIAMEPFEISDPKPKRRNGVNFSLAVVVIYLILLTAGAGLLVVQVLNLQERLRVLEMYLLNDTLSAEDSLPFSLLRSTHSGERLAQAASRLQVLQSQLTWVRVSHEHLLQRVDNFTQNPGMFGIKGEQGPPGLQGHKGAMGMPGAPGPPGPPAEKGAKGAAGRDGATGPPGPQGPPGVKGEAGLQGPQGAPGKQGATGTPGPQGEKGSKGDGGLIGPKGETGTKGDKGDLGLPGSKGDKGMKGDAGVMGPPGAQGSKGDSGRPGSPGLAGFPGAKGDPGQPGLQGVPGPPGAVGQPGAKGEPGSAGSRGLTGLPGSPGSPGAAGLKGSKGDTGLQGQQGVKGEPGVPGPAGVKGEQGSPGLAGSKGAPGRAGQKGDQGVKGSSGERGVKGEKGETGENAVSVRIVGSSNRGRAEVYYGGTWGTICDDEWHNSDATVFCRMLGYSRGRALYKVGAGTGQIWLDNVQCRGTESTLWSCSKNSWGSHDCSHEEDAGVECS

T4: chimera Mouse MARCO CLD-human MARCO SRCR, on cells
T4 chain: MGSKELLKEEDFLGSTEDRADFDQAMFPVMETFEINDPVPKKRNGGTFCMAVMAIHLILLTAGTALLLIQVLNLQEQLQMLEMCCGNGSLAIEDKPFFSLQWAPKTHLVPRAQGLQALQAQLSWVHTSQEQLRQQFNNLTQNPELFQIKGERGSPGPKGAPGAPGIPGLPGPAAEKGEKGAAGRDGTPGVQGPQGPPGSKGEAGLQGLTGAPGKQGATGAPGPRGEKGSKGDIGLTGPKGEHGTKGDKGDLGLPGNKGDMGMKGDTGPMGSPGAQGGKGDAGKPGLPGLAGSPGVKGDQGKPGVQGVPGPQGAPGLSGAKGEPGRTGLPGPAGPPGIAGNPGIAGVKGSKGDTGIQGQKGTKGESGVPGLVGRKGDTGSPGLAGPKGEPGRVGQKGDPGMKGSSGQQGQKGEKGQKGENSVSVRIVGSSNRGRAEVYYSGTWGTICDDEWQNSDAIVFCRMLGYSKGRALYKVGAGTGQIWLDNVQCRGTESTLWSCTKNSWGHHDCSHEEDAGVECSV


Legend:
[1] = molecular target: T1, N-terminally polyhistidine tagged human …; experiment: KD (nM) Human; method not given
[2] = molecular target: T5, hVar3 (RG3036) (human, UniProt Q9UEW3 147-520); experiment: ELISA on hVar3
T5 construct: Human MARCO His-CLD-SRCR with Q452D, Y472S and K473S (already in the entry); also called recombinant human SRCR MARCO hVar3 protein

[3] = molecular target: T2, Human Macrophage Receptor with …; experiment: flow cytometry, cells overexpressing human MARCO
Experimental: (§1) Supernatants were removed and cell pellets were resuspended in Ca²⁺+ and Mg²⁺+ Dulbecco's phosphate-buffered saline (D-PBS) at 1×10⁶ cells/ml. 100,000 cells/well were plated onto U-bottom 96-well plates for staining and all centrifugation steps were performed at 1500 rpm at 4° C. for 5 min and samples were kept protected from light throughout the protocol. Cells were pelleted and resuspended in 100 μl of Zombie NIR viability dye (BioLegend) prepared by diluting Zombie NIR dimethyl sulfoxide (DMSO) stock 1000-fold in D-PBS. Cells were stained by incubation for 10 min at room temperature (RT) in the dark, followed by quenching the staining reaction with the addition of 100 μl of Staining Medium (D-PBS containing 2% FBS and 2 mM ethylenediaminetetraacetic acid (EDTA). Cells were pelleted and resuspended in 100 μl of the different antibodies and hybridomas supernatants needed for screening and corresponding isotype controls in freshly prepared staining medium, such as PI-M014 and mIgG2b isotype. All mAbs were tested at the final top concentration of 100 nM (15 μg/ml) followed by an 8-point three-fold serial dilution, including 0 mg/ml control. Staining was carried out for 1 hour (hr) on ice, followed by 2 washes in Staining Medium. Cells were then pelleted and resuspended in 100 μl of allophycocyanin (APC)-conjugated goat anti-mouse IgG (Fc-specific) secondary antibody, prepared by 500-fold dilution of the antibody stocks in Staining Medium, and incubated for 30 min on ice. […] Flow cytometry data were analyzed using FlowJo software (version 10.6.1) and data were processed and further analyzed in Microsoft Excel and GraphPad Prism software (version 8). Half-maximal effective concentrations (EC₅₀) were calculated based on geometric mean fluorescence intensities (gMFI). In case when the plates were not able to be analyzed on the cytometer, cells were pelleted after the washes and fixed in 100 μl of 2% paraformaldehyde (PFA), prepared by diluting the 16% (w/v) stock (Thermo Fisher) in DPBS, for 15 min at RT. […]

[4] = molecular target: T1, N-terminally polyhistidine tagged human …; experiment: ProbeLife Gator
Experimental: (§2) The kinetics assay used either anti-mouse Fc or anti-human Fc probes to capture the anti-MARCO antibodies onto the probe, and then a five-step kinetic protocol was used to measure the affinity of the antibodies to the antigen, including the following steps: baseline, loading, baseline, association, and dissociation. The kinetics buffer (K buffer) provided by ProbeLife was used to establish the baseline for 60 seconds, and then the anti-mFc or anti-hFc probes were loaded with 200 nM of the antibodies for 120s until the capture reached saturation, measurement of the baseline in K buffer was performed for another 60s, followed by the association step using 200 nM antigen (human MARCO, mouse MARCO or cyno MARCO), and the dissociation step performed in K buffer for 5-10 minutes. The assay was done at 37° C. to maximize antibody:antigen dissociation.

[5] = molecular target: T3, Cynomolgus MARCO, full length, on cells; experiment: flow cytometry, cells overexpressing cyno MARCO
[6] = molecular target: T4, chimera Mouse MARCO CLD-human MARCO …; experiment: flow cytometry, cells overexpressing HuSRCR-mouse CLD chimera
[7] = molecular target: T1, N-terminally polyhistidine tagged human …; experiment: label-free kinetics (ProbeLife Gator), mAb captured, human MARCO
Experimental: as §2
Kinetics and epitope binning analysis of the newly generated anti-human MARCO antibodies was performed as described in Example 3.

[8] = molecular target: T1, N-terminally polyhistidine tagged human …; experiment: ELISA on recombinant human MARCO, 2 mM EDTA
Experimental: (§3) After the plates were incubated at room temperature for 1 hour or 4° C. overnight, the plates were wash 3 times with ELISA wash buffer (PBS/0.05% TWEEN-20), then hybridoma supernatant (1:5 dilution) or purified antibody (1 ug) was diluted in DPBS/Ca2+/2% FBS, DPBS without Ca2+/2 mM EDTA/2% FBS, DPBS without Ca2+/10 mM EDTA/2% FBS, and DPBS without Ca2+/50 mM EDTA/2% FBS. Plates again were incubated at room temperature for 1 hour.

[9] = molecular target: T1, N-terminally polyhistidine tagged human …; experiment: ELISA on recombinant human MARCO, 10 mM EDTA
Experimental: as §3

[10] = molecular target: T2, Human Macrophage Receptor with …; experiment: flow cytometry, 293T (HuMARCO)
Experimental: Supernatants were removed and cell pellets were resuspended in Ca²⁺+ and Mg²⁺+ Dulbecco's phosphate-buffered saline (D-PBS) at 1×10⁶ cells/ml. 100,000 cells/well were plated onto U-bottom 96-well plates for staining and all centrifugation steps were performed at 1500 rpm at 4° C. for 5 min and samples were kept protected from light throughout the protocol. Cells were pelleted and resuspended in 100 μl of Zombie NIR viability dye (BioLegend) prepared by diluting Zombie NIR dimethyl sulfoxide (DMSO) stock 1000-fold in D-PBS. Cells were stained by incubation for 10 min at room temperature (RT) in the dark, followed by quenching the staining reaction with the addition of 100 μl of Staining Medium (D-PBS containing 2% FBS and 2 mM ethylenediaminetetraacetic acid (EDTA). Cells were pelleted and resuspended in 100 μl of the different antibodies and hybridomas supernatants needed for screening and corresponding isotype controls in freshly prepared staining medium, such as PI-M014 and mIgG2b isotype. All mAbs were tested at the final top concentration of 100 nM (15 μg/ml) followed by an 8-point three-fold serial dilution, including 0 mg/ml control. Staining was carried out for 1 hour (hr) on ice, followed by 2 washes in Staining Medium. Cells were then pelleted and resuspended in 100 μl of allophycocyanin (APC)-conjugated goat anti-mouse IgG (Fc-specific) secondary antibody, prepared by 500-fold dilution of the antibody stocks in Staining Medium, and incubated for 30 min on ice. Plates were then washed two times with Staining Medium, followed by resuspension in 150 μl of the same buffer for acquisition on the flow cytometer (Attune NxT, Life Technologies). Flow cytometry data were analyzed using FlowJo software (version 10.6.1) and data were processed and further analyzed in Microsoft Excel and GraphPad Prism software (version 8). Half-maximal effective concentrations (EC₅₀) were calculated based on geometric mean fluorescence intensities (gMFI). In case when the plates were not able to be analyzed on the cytometer, cells were pelleted after the washes and fixed in 100 μl of 2% paraformaldehyde (PFA), prepared by diluting the 16% (w/v) stock (Thermo Fisher) in DPBS, for 15 min at RT. Cells were then pelleted and the fixative was removed, followed by resuspension in 150 μl of Staining Medium and stored at 4° C. until acquisition on the flow cytometer.

[11] = molecular target: T1, N-terminally polyhistidine tagged human …; experiment: ELISA on recombinant human MARCO, 0 mM EDTA
Experimental: as §3

[12] = molecular target: T1, N-terminally polyhistidine tagged human …; experiment: ELISA on recombinant human MARCO, 50 mM EDTA
Experimental: as §3

[13] = molecular target: T3, Cynomolgus MARCO, full length, on cells; experiment: flow cytometry, 293T (CyMARCO)
Experimental: as §1

Kd [1] [nM]	binding result [2]	EC50 [3] [nM]	koff [4] [s⁻¹]	EC50 [5] [nM]	EC50 [6] [nM]	koff [7] [s⁻¹]	kon [7] [M⁻¹ s⁻¹]	ELISA signal (A450) [8]	ELISA signal (A450) [9]	EC50 [10] [nM]	ELISA signal (A450) [11]	ELISA signal (A450) [12]	EC50 [13] [nM]	Binder
0.6	no binding	1.6	0.00281	1.09	1.07									PI-3031-AB (antibody, human IgG1, kappa, Human IgG1 chimera of PI-HX-3043; also called HX3043-h1 Chimera hIgG1) heavy: not shown light: DIQMTQSPASLSASLGETVSIECLTSEGISNDLAWYQQKSGKSPQLLIYDASRLEDGVPSRFSGSGSGTRYSLKISGMQTEDEADYFCQQSYKYPLTFGSGTKLEIKRTVAAPSVFIFPPSDEQLKSGTASVVCLLNNFYPREAKVQWKVDNALQSGNSQESVTEQDSKDSTYSLSSTLTLSKADYEKHKVYACEVTHQGLSSPVTKSFNRGEC
						0.000914	401000	0.0636	0.0811	0.096	1.17	0.082	0.094	PI-HX-3011 (antibody, rat IgG2a, Parental rat hybridoma, rat IgG2a) heavy: QIQLVQSGPELKKPGESVKISCKASGYTFTDYAVNWVKQAPGNGLKWMGWINTQTGKPTYADDFKQRFVFSLETSASTSFLQINNLNIEDTATYFCTRDSYYYSSSLDYWGQGVMVTVSSAETTAPSVYPLAPGTALKSNSMVTLGCLVKGYFPEPVTVTWNSGALSSGVHTFPAVLQSGLYTLTSSVTVPSSTWSSQAVTCNVAHPASSTKVDKKIVPRECNPCGCTGSEVSSVFIFPPKTKDVLTITLTPKVTCVVVDISQNDPEVRFSWFIDDVEVHTAQTHAPEKQSNSTLRSVSELPIVHRDWLNGKTFKCKVNSGAFPAPIEKSISKPEGTPRGPQVYTMAPPKEEMTQSQVSITCMVKGFYPPDIYTEWKMNGQPQENYKNTPPTMDTDGSYFLYSKLNVKKETWQQGNTFTCSVLHEGLHNHHTEKSLSHSP light: DIQMTQSPASLSASLGETVSIECLASAGISNDLAWYQQKSGKSPQLLIYAASRLQDGVPSRFSGSGSGTRFSLKISDMQPEDEADYFCQQSYKYPWTFGGGTKLELKRADAAPTVSIFPPSTEQLATGGASVVCLMNNFYPRDISVKWKIDGTERRDGVLDSVTDQDSKDSTYSMSSTLSLTKADYESHNLYTCEVVHKTSSSPVVKSFNRNEC
